Laboratory results from patent US20160237414A1 (CHILDREN S HOSPITAL MEDICAL CENTER, published 2016).
Primed or numbered codes have the meaning given here. No end group written: not given here. FITC′ = fluorescein isothiocyanate (fluorescent probe)

T1: LIMP-2 in Gba1-/- fibroblasts (endogenous, detected by anti-LIMP2 immunofluorescence) (UniProt O35114 1-478, limits assumed)
T1 sequence (looked up): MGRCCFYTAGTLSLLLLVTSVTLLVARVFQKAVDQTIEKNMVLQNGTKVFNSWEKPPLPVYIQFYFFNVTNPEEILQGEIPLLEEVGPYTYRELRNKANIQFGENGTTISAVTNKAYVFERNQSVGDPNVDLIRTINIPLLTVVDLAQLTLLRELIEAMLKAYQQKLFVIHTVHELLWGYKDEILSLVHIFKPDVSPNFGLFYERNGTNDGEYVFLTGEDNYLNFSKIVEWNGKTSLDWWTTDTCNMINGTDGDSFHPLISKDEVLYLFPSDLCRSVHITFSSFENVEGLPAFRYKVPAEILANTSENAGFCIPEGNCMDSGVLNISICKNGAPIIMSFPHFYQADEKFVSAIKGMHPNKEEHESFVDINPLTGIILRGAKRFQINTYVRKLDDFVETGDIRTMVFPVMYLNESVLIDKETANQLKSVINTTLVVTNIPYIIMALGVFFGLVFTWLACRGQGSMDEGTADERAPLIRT

T2: Purified luminal domain LIMP-2 (ld-LIMP2) (UniProt Q14108 28-433, limits assumed)
T2 construct: domain: luminal domain; also called LIMP-2/SCARB2
T2 sequence (looked up): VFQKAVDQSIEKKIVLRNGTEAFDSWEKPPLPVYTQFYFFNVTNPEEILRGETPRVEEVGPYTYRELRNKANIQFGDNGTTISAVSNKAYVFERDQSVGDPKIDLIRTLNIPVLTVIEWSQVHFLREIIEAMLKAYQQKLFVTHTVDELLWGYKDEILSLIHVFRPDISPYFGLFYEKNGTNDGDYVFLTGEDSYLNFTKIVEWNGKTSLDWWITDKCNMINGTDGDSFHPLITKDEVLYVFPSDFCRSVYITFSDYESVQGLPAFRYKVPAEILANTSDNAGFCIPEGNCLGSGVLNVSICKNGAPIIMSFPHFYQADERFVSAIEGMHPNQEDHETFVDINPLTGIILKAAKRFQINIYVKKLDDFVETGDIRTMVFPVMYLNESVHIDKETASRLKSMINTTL

B1: ASPIIV (SEQ ID NO 16) (D399A) GCase (enzyme)
chain: ARPCIPKSFGYSSVVCVCNATYCDSFDPPTFPALGTFSRYESTRSGRRMELSMGPIQANHTGTGLLLTLQPEQKFQKVKGFGGAMTDAAALNILALSPPAQNLLLKSYFSEEGIGYNIIRVPMASCDFSIRTYTYADTPDDFQLHNFSLPEEDTKLKIPLIHRALQLAQRPVSLLASPWTSPTWLKTNGAVNGKGSLKGQPGDIYHQTWARYFVKFLDAYAEHKLQFWAVTAENEPSAGLLSGYPFQCLGFTPEHQRDFIARDLGPTLANSTHHNVRLLMLDDQRLLLPHWAKVVLTDPEAAKYVHGIAVHWYLDFLAPAKATLGETHRLFPNTMLFASEACVGSKFWEQSVRLGSWDRGMQYSHSIITNLLYHVVGWTDWNLALNPEGGPNWVRNFVASPIIVDITKDTFYKQPMFYHLGHFSKFIPEGSQRVGLVASQKNDLDAVALMHPDGSAVVVVLNRSSKDVPLTIKDPAVGFLETISPGYSIHTYLWRRQ
B2: DSPAIV (SEQ ID NO 17) (I402A) GCase (enzyme)
chain: ARPCIPKSFGYSSVVCVCNATYCDSFDPPTFPALGTFSRYESTRSGRRMELSMGPIQANHTGTGLLLTLQPEQKFQKVKGFGGAMTDAAALNILALSPPAQNLLLKSYFSEEGIGYNIIRVPMASCDFSIRTYTYADTPDDFQLHNFSLPEEDTKLKIPLIHRALQLAQRPVSLLASPWTSPTWLKTNGAVNGKGSLKGQPGDIYHQTWARYFVKFLDAYAEHKLQFWAVTAENEPSAGLLSGYPFQCLGFTPEHQRDFIARDLGPTLANSTHHNVRLLMLDDQRLLLPHWAKVVLTDPEAAKYVHGIAVHWYLDFLAPAKATLGETHRLFPNTMLFASEACVGSKFWEQSVRLGSWDRGMQYSHSIITNLLYHVVGWTDWNLALNPEGGPNWVRNFVDSPAIVDITKDTFYKQPMFYHLGHFSKFIPEGSQRVGLVASQKNDLDAVALMHPDGSAVVVVLNRSSKDVPLTIKDPAVGFLETISPGYSIHTYLWRRQ
B3: DSPAAV (SEQ ID NO 19) (I402A+I403A) GCase, double mutant (enzyme)
chain: ARPCIPKSFGYSSVVCVCNATYCDSFDPPTFPALGTFSRYESTRSGRRMELSMGPIQANHTGTGLLLTLQPEQKFQKVKGFGGAMTDAAALNILALSPPAQNLLLKSYFSEEGIGYNIIRVPMASCDFSIRTYTYADTPDDFQLHNFSLPEEDTKLKIPLIHRALQLAQRPVSLLASPWTSPTWLKTNGAVNGKGSLKGQPGDIYHQTWARYFVKFLDAYAEHKLQFWAVTAENEPSAGLLSGYPFQCLGFTPEHQRDFIARDLGPTLANSTHHNVRLLMLDDQRLLLPHWAKVVLTDPEAAKYVHGIAVHWYLDFLAPAKATLGETHRLFPNTMLFASEACVGSKFWEQSVRLGSWDRGMQYSHSIITNLLYHVVGWTDWNLALNPEGGPNWVRNFVDSPAAVDITKDTFYKQPMFYHLGHFSKFIPEGSQRVGLVASQKNDLDAVALMHPDGSAVVVVLNRSSKDVPLTIKDPAVGFLETISPGYSIHTYLWRRQ
B4: DSPIAV (SEQ ID NO 18) (I403A) GCase (enzyme)
chain: ARPCIPKSFGYSSVVCVCNATYCDSFDPPTFPALGTFSRYESTRSGRRMELSMGPIQANHTGTGLLLTLQPEQKFQKVKGFGGAMTDAAALNILALSPPAQNLLLKSYFSEEGIGYNIIRVPMASCDFSIRTYTYADTPDDFQLHNFSLPEEDTKLKIPLIHRALQLAQRPVSLLASPWTSPTWLKTNGAVNGKGSLKGQPGDIYHQTWARYFVKFLDAYAEHKLQFWAVTAENEPSAGLLSGYPFQCLGFTPEHQRDFIARDLGPTLANSTHHNVRLLMLDDQRLLLPHWAKVVLTDPEAAKYVHGIAVHWYLDFLAPAKATLGETHRLFPNTMLFASEACVGSKFWEQSVRLGSWDRGMQYSHSIITNLLYHVVGWTDWNLALNPEGGPNWVRNFVDSPIAVDITKDTFYKQPMFYHLGHFSKFIPEGSQRVGLVASQKNDLDAVALMHPDGSAVVVVLNRSSKDVPLTIKDPAVGFLETISPGYSIHTYLWRRQ
B5: AAA GCase (triple alanine mutant in the TKD sequence, amino acids 407-409) (enzyme)
chain: ARPCIPKSFGYSSVVCVCNATYCDSFDPPTFPALGTFSRYESTRSGRRMELSMGPIQANHTGTGLLLTLQPEQKFQKVKGFGGAMTDAAALNILALSPPAQNLLLKSYFSEEGIGYNIIRVPMASCDFSIRTYTYADTPDDFQLHNFSLPEEDTKLKIPLIHRALQLAQRPVSLLASPWTSPTWLKTNGAVNGKGSLKGQPGDIYHQTWARYFVKFLDAYAEHKLQFWAVTAENEPSAGLLSGYPFQCLGFTPEHQRDFIARDLGPTLANSTHHNVRLLMLDDQRLLLPHWAKVVLTDPEAAKYVHGIAVHWYLDFLAPAKATLGETHRLFPNTMLFASEACVGSKFWEQSVRLGSWDRGMQYSHSIITNLLYHVVGWTDWNLALNPEGGPNWVRNFVDSPIIVDIAAATFYKQPMFYHLGHFSKFIPEGSQRVGLVASQKNDLDAVALMHPDGSAVVVVLNRSSKDVPLTIKDPAVGFLETISPGYSIHTYLWRRQ
notes: Made from full length pCMV-GCase-GFP or YFP vectors; also called AAA mutant

Experiments:
[1] = target: T1, LIMP-2 in Gba1-/- fibroblasts …; experiment: cell-based or functional assay
[2] = target: T2, Purified luminal domain LIMP-2 …; experiment: in vitro immunoprecipitation of purified GCase with ldLIMP-2 (1:1) on anti-LIMP2 beads, immunoblot (FIG. 6B)
Text: Immunoprecipitation of GCases with mutations in the TKD sequence: For immunoblots, Gba1 knockout mouse fibroblasts (null/null) were transfected with the GBA1 constructs (WT or mutants) and expressed for 5 days. The GCases from harvested cell lysates were purified using a GCase antibody affinity column (Dynabeads protein G crosslinked (BS3) with rabbit anti-human GCase antibody). […] Aliquots of each step (loading, wash and eluent) were collected and analyzed on 12.5% SDS gels. Immunoblots were developed using anti-human GCase antibody and AP conjugated color development kits. Mock experiments with either non-LIMP2 proteins added or no GCases added, were used as control. The quantitations of these immunoprecipitation data were obtained from densitometry measurements of the gels. The no-LIMP-2 bars are the controls for comparison, since GCase was processed through all steps without LIMP-2 to account for any losses of GCase; About 50% of the GCase was lost during processing.

[3] = target: T2, Purified luminal domain LIMP-2 …; experiment: fluorescence polarization, FITC peptide titrated, ldLIMP2 fixed at 50 nM (FIG. 7A)
Protocol: FIG. 7A-FIG. 7C: Binding and competition of fluorescent labeled or unlabeled DSPIIV (SEQ ID NO 15) GCase peptides to ldLIMP2. The change (δmP) in fluorescence polarization is plotted on the ordinate and the increasing concentrations of the various peptides are on the abscissa. FIG. 7A depicts saturation kinetics under conditions in which the concentration of ldLIMP2 (50 nM) was fixed. […] FIG. 7B depicts a similar study using unlabeled peptides as competitors. […] Each of the unlabeled peptides “competed” with the labeled peptides in the expected ratios. FIG. 7C depicts a competition study in which labeled (WT*) and unlabeled (WT) peptides were used in complementary competition studies.
Fluorescence Polarization: The DSPIIV (SEQ ID NO 15) and its mutants, and DDQRLLL (SEQ ID NO 14) peptides (FITC labeled or non-labeled) were synthesized (American Peptide Co., Vista, Calif.). Lyophilized peptides were solubilized in acetonitrile and then were diluted at least 10,000-fold into the reactions for fluorescence polarization assessments. The reactions were done at least in duplicate at various peptide and LIMP-2 concentrations (SpectraMax M5, Molecular Device). Fluorescence polarization data were collected and analyzed with SoftMax Pro 5.0 software. Reaction mixtures contained 100 mM phosphate, pH 6.8 and 1 mM DTT.

[4] = target: T2, Purified luminal domain LIMP-2 …; experiment: peptide binding to ldLIMP2 at pH 6.8 (FIG. 9)
[5] = target: T2, Purified luminal domain LIMP-2 …; experiment: peptide binding to ldLIMP-2 at pH 6.8 (FIG. 9)

Binder | % Secreted [1] [%] | also measured
B1 | 36 | –
B2 | 22 | –
B3 | 83 | –
B4 | 23 | –
B5 | – | binding result [2]: no binding
DSPIIV-{FITC′} (also called WT peptide; WT*) [DSPIIV (SEQ ID NO 15) GCase peptide, FITC labeled] | – | EC50 [3]: ~50 nM
ASPAAV-{FITC′} (also called ASPAAP) [ASPAAV peptide (triple mutant: alanines for D399, I402 and I403), FITC labeled] | – | binding relative to WT [4]: < 10 % of WT; percent decrease in binding [5]: ~90%
